This is an account of results in patent US20260034233A1 (SUNMED THERAPEUTIC, published 2026).

B1: 1104SBC1068-033 (antibody, IgG4, V domains shown)
VH: DVQLQESGPGLVKPSQSLSLTCTVTGYSITSDYAWNWIRQFPGNKLEWMGYISYSGSTSYNPSLKSRISITRDASKNQFFLQLNSVTTEDTATYYCAREGGRGGTEGYYFDYWGQGTTLTVSS
VL: NIVLTQSPASLAVSLGQRATISCRASESVDSYGNSFMHWYQQKPGQPPKLLIYLASNLESGVPARFSGSGSRTDFTLTIDPVEADDAATYYCQQNNEDPLTFGAGTKLELK
B2: 1220SBC1068-063 (antibody, IgG4, V domains shown)
VH: EVNLLESGGGLVQPGGSLKLSCEASGFDFSRFWMSWVRQTPGEGLEWIGEISPNSSTIHQTPSLKDRFIISRDNAKNTLFLQMTKVTSDDSALYYCARPYYGYYWGHGTLVTVSA
VL: DIVMTQSPSSLTVTAGEKVTMSCKSSQSLLSSINQKNYLTWYQQKPGQPPKLLIYWATSRESGVPDRFTGSGSGTDFTLTISSLQAEDLAVYYCHNDYSYPFTFGSGTRLEIK
B3: 1220SBC1068-197 (antibody, IgG4, V domains shown)
VH: EVNLLESGGGLVQPGGSLKLSCEASGFDFSRFWMSWVRQTPGEGLEWIGEISPNSSTIHQTPSLKDKFFISRDNAKSTLFLQMTNVTSEDSALYYCARPYYGYYWGHGTLVTVSA
VL: DIVMTQSPSSLTVTAGEKVTMSCKSSQSLLNSINQKNYLTWYQQKPGQPPKLLIYWATFRESGVPDRFTGSGSGTDFTLTISGLQAEDLAVYYCHNDYSYPFTFGSGTRLEIK
B4: 1104SBC1068-378 (antibody, IgG4, V domains shown)
VH: QIQLVQSGPELKKPGETVKISCKASGYTFTNYGMNWVKQAPGKGLKWMGWINTYTGEPTYADDFKGRFAFSLETSASTAYLQINNLKNEDTATYFCARWDDYDGFAYWGQGTLVTVSA
VL: DIVLTQSPATLSVTPGDSVSLSCRASQSISNNLHWYQQKSHESPRLLIKYASQSISGIPSRFSGSGSGTDFTLSINSVETEDFGMYFCQQSNSWPLTFGAGTKLELK
B5: 1104SBC1068-374 (antibody, IgG4, V domains shown)
VH: QIQLVQSGPELKKPGETVKISCKASGYTFTNYGMNWVKQAPGKGLKWMGWINTYTGEPTYADDFKGRFAFSLETSASTAYLQINNLKNEDMATYFCARYAMDYWGQGTSVTVSS
VL: QAVVTQESALTTSPGGTVILTCRSSTGAVTTSNYANWVQEKPDHLFTGLIGGTSNRAPGVPVRFSGSLIGDKAALTITGAQTEDDAMYFCALWYSTHYVFGGGTKVTVL
B6: 1104SBC1068-365 (antibody, IgG4, V domains shown)
VH: QIQLVQSGPELKKPGETVKISCKASGYTFTNYGMNWVKQAPGKGLKWMGWINTNTGEPTYSEEFKGRFAFSLETSASTAYLQINNLKNEDTATYFCGRSSYYAMDYWGQGTSVTVSS
VL: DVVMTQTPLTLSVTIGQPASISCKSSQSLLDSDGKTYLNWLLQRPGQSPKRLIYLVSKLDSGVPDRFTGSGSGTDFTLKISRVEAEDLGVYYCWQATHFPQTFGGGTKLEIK
B7: 1220SBC1068-022 (antibody, IgG4, V domains shown)
VH: EVKLVESGGGLVQPGGSRKLSCAASGFTFSDYGMAWFRQAPGKGPEWVAFISNLAYSVYYADTVTGRFTISRENAKNTLFLEMSSLRSEDTAIYYCTRDRGLRESMDYWGQGTSVTVSS
VL: DIVMTQAAPSVPVTPGESVSISCRSSKSLLHNNGNTYLCWFLQRPGQSPQLLIYRMSDLASGVPDRFSGSGSGTAFTLRISRVEAEDVGVYYCMQHLEYPYTFGGGTKLEIK
B8: 1220SBC1068-056 (antibody, IgG4, V domains shown)
VH: EVKLVESGGGLVQPGGSRKLSCAASGFTFSDYGMAWFRQAPGKGPEWVAFISNLAYSVYYADTVTGRFTISRENAKNTLYLEMSSLRSEDTAIYYCTRDRGLRESMDYWGQGTSVTVSS
VL: DIVMTQAAPSVPVTPGESVSISCGSSKSLLHKNGNTYLCWFLQRPGQSPQLLIYRMSNLASGVPDRFSGSGSGTAFTLRISSVEAEDVGIYYCMQHLEYPYTFGGGTKLEIK
B9: 1220SBC1068-058 (antibody, IgG4, V domains shown)
VH: EVKLVESGGGLVQPGGSRKLSCAASGFTFSDYGMAWFRQAPGKGPEWVAFISNLAYSVYYADTVTGRFTISRENAKNTLYLEMNSLRSEDTAIYYCTRDRGLRETMDYWGQGTSVTVSS
VL: DIVMTQAAPSVPVTPGESVSISCRSSKSLLHNNGNTYLCWFLQRPGQSPQLLIYRMSNLASGVPDRFSGSGSGTAFTLRISRVEAEDVGVYYCMQHLEYPYTFGGGTKLEIK
B10: 1104SBC1068-335 (antibody, IgG4, V domains shown)
VH: QIQLVQSGPELKKPGETVKISCKASGYIFTNYGMNWVKQAPGKGLKWMGWINTYSGEPTYVDDFKGRFVFSLETSASTAYLQINNLKNEDMATYFCARGTVVGFDYWGQGTTLTVSS
VL: not shown
B11: 1220SBC1068-210 (antibody, IgG4, V domains shown)
VH: EVKLLESGGGLVQPGGSLKLSCAASGFDFSRYWMSWVRQAPGKGLEWIGEINPDSSTIDLTPSLKDNFIISRDNAKNALYLQMSKVRSEDTALYYCTRPYYGYYWGQGTLVTVSA
VL: DIVMTQSPSSLTVTAGEKVTMNCRSSQSLLNSTNQKNYLTWYQQRPGQPPKLLIYWASTRESGVPDRFTGSGSGTDFTLTISTVQAEDLAVYYCQNDYTSPFTFGSGTKLEIK
B12: 1220SBC1068-164 (antibody, IgG4, V domains shown)
VH: EVKLLESGGGLVQPGGSLKLSCAASGFDFSRYWMSWVRQAPGKGLEWIGEISPDSSTINYTASLKDKFNISRDNAKNTLYLQMSKVRSEDTALYYCARPYYGYYWGQGTLVTVSE
VL: DIVMTQSPSSLTVTAGEKVTMSCKSSQSLFNSGNQKNYLTWYQQKPGQPPKLLIYWAYTRESGVPDRFTGSGSGTDFTLTIHGVQAEDLAVYYCHNDYTSPFTFGSGTKLEMK
B13: 1220SBC1068-129 (antibody, IgG4, V domains shown)
VH: EVKLLESGGDLVQPGGSLKLSCAASGFDFSRFWMSWVRQAPGKGLEWIGEINPDSSTITYTPSLKDKFIISRDNAKSSLYLQMSKVTSEDTALYYCARPYYGYYWGQGTLVTVSA
VL: DIVMTQSPSSLTVTAGKEVTMSCKSSQSLLNSTNQKNYLTWYQQKPGQSPKLLIYWASTRDSGVPDRFTGSGSGTDFTLTISSVQAEDLAIYYCHNDYISPFTFGSGTKLEIK
B14: 1220SBC1068-099 (antibody, IgG4, V domains shown)
VH: EVKLLESGGGLVQPGGSLKLSCAASGFDFSRYWMTWVRQAPGKGLEWIGEINPHSSTITYTPSLKDKFIISRDNAKNTLYLQMSKVSSEDTALYYCARPYYGYYWGQGTLVTVSA
VL: DIVMTQSPSSLTVTAGEKVTMSCKSSQSLLNSGNQKIYLTWYQQKPGQPPKLLIYWASIRESGVPDRFTGSGSGTDFTLTISSVQAEDLAVYYCQNDYSSPFTFGSGTKLEIK
B15: 1220SBC1068-098 (antibody, IgG4, V domains shown)
VH: EVKLLESGGGLVQPGGSLKLSCAASGFDFSRYWMSWVRQAPGKGLEWIGEISPDSSTIDLTPSLKDNFIISRDNAKNALYLQMSKVKSEDTALYYCTRPYHGYYWGQGTLVTVSA
VL: DIVMTQSPSSLTVTAGEKVTMNCRSSQSLLNSTNQKNYLTWYQQKPGQPPKLLIYWASTKESGVPDRFTGSGSGTDFTLTINTVQAEDLAVYYCQNDYTSPFTFGSGTKLEIK
B16: 1220SBC1068-041 (antibody, IgG4, V domains shown)
VH: EVKLLESGGGLVQPGGSLKLSCAASGFDFSRFWMSWVRQAPGKGLEWIGEISPDSNTIDLTPSLKDNFIISRDNAKNALFLQMSKVRSEDTALYYCTRPYYGYYWGQGTLVTVSA
VL: DIVMTQSPSSLTVTAGEKVTMNCRSSQSLFNSTNQKNYLTWYQQKPGQPPKLLIYWASSRESGVPDRFTGSGSGTDFTLTISTVQTEDLAVYYCQNDYTSPFTFGSGTRLEIK
B17: 1220SBC1068-097 (antibody, IgG4, V domains shown)
VH: EVKLLESGGGLVQPGGSLKLSCAASGFDFSRYWMSWVRQAPGKGLEWIGEINPDSSTIDLTPSLKDNFIISRDNAKNALYLQMSKVKSEDTALYYCTRPYHGYYWGQGTLVTVSA
VL: DIVMTQSPSSLTVTAGEKVTMNCRSSQSLLNSTNQKNYLTWYQQKPGQPPKLLIYWASTRESGVPDRFTGSGSGTDFTLTINTVQAEDLAIYYCQNDYTSPFTFGSGTKLEIK
B18: 1220SBC1068-274 (antibody, IgG4, V domains shown)
VH: EVKLLESGGGLVQPGGSLKLSCAASGFDFSRYWMSWVRQAPGKGLEWIGEISPDSNTIDLTPSLKDNFIISRDNAKNALYLQMSKLRSEDTALYYCTRPYYGYYWGQGTLVTVSA
VL: DIVMTQSPSSLTVTAGEKVTMNCRSSQSLLNSTNQKNYLTWYQQKPGQPPKLLIYWASTRESGVPDRFTGSGSGSDFTLTISTVQAEDLAVYYCQNDYTSPFTFGSGTKLEIK
B19: 1220SBC1068-186 (antibody, IgG4, V domains shown)
VH: EVQLQQSGPELVKPGASMKMSCKASGYSFTGYTMNWVKQSHGKNLEWIGLISPYSGGTNYNQKFKGKATLTVDKSSSTAYMEVFSLTSEDSGVYYCARSGFITTGVATNFDVWGAGTTVTVSS
VL: DIVMTQSHKFMSTSVGDRVSITCKASQDVSTAVAWYQQRPGQSPKLLIYSASNRYTGVPDRFTGSGSGTDFTFTISSMQAEDLAIYYCQQHYSTPRTFGGGTKLEIK
B20: 1220SBC1068-035 (antibody, IgG4, V domains shown)
VH: EVQLQQSGPELVKPGASMKISCKASGYAFTGYTMNWVKQSHGKNLEWIGLISPYSGGTNYNQRFKGKATFTVDKSSSTAYMELLSLTSEDSGVYYCARSGFITTGVPTNFDVWGAGTTVTVSS
VL: DIVMTQSHKFMSTSVGDGVNITCKASQDVSTAVAWYQQKPGQSPRLLIYSASYRYTGVPDRFTGSGSGTDFTFTISSMQAEDLAVYYCQQHYTTPRTFGGGTKLEIK

The target in this test is T1, human Galectin-3 (human, UniProt P17931 2-250, limits assumed).
T1 construct: also called Human GAL-3; hGal-3
T1 sequence (P17931 2-250 limits assumed): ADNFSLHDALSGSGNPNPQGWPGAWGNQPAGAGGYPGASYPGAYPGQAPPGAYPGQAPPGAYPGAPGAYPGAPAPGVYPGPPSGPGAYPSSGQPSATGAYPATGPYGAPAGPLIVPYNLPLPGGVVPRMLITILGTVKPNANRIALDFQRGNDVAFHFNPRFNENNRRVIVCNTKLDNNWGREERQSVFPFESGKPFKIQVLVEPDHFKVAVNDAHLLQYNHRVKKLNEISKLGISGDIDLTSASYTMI
Description: Carterra LSA SPR epitope binning, antibody on chip, hGal-3 injected. The method, then: The purpose of this study is to determine the epitope binning of antibodies against human Gal-3. Binning assay was conducted to characterize epitopes of the anti-Gal-3 antibodies using a Carterra LSA instrument. All the antibodies were constructed in hIgG4 backbone. Antibodies as ligands were covalently linked to a HC200M chip. The antigen hGal-3 as the analyte was injected to flow cells to bind to the captured ligands. Competitive binning was programmed to determine if two mAbs can bind simultaneously to the same antigen.
Epitope binning assay procedure. An array of antibodies as ligand were coupled to the chip surface HC200M using the Multichannel PH with the running buffer (25 mM MES buffer). The NHS/EDC activation time and coupling time was set at 5 min and 15 min respectively. The SFC then docked onto the chip, and in each cycle, antigen human Galectin-3 was injected across the entire Ab array, with association time of 5 min, followed by a single antibody as analyte with association time of 5 min. After 1 min dissociation, regeneration buffer (pH 2.0, 10 mM Glycine) was applied for 20 s for three times. The data were analyzed by Caterra Epitope Data Analysis Software.
Take B1: the binding result is given as “binds”.

Consider B2, for which the binding result is “binds”.

B3: the binding result is recorded as “binds”.

Consider B4, for which the binding result is “binds”.

Consider B5, for which the binding result is recorded as “binds”.

In the case of B6, the binding result is recorded as “binds”.

As to B7, the binding result is “binds”.

Turning to B8, the binding result is given as “binds”.

Consider B9, for which the binding result is “binds”.

Take B10: the binding result was “binds”.

Consider B11, for which the binding result is “binds”.

As to B12, the binding result was “binds”.

Turning to B13, the binding result is “binds”.

On to B14, for which the binding result is listed as “binds”.

As to B15, the binding result is “binds”.

As to B16, the binding result is recorded as “binds”.

B17: the binding result is recorded as “binds”.

Take B18: the binding result is listed as “binds”.

B19: the binding result is “binds”.

Consider B20, for which the binding result was “binds”.
